Here are results for two proteins from patent US6830925.

Series [1] has as its target T1, Calmodulin Dependent Protein Kinase Substrate.
T1 chain: PLSRTLSVSS

For series [2], the target named is calmodulin (CalBiochem), P0DP23.
The target in another series is T2, Syntide 2.
T2 chain: PLARTLSVAGLPGKK

The target of the next series is T3, CREBtide.
T3 chain: KRREILSRRPSYR

B1: Xpress-CaMK-X1 fusion protein (CaMK-X1 coding sequence fused to the Xpress epitope, stably expressed in HEK293 cells) (protein)
chain: MGRKEEDDCSSWKKQTTNIRKTFIFMEVLGSGAFSEVFLVKQRLTGKLFALKCIKKSPAFRDSSLENEIAVLKKIKHENIVTLEDIYESTTHYYLVMQLVSGGELFDRILERGVYTEKDASLVIQQVLSAVKYLHENGIVHRDLKPENLLYLTPEENSKIMITDFGLSKMEQNGIMSTACGTPGYVAPEVLAQKPYSKAVDCWSIGVITYILLCGYPPFYEETESKLFEKIKEGYYEFESPFWDDISESAKDFICHLLEKDPNERYTCEKALSHPWIDGNTALHRDIYPSVSLQIQKNFAKSKWRQAFNAAAVVHHMRKLHMNLHSPGVRPEVENRPPETQASETSRPSSPEITITEAPVLDHSVALPALTQLPCQHGRRPTAPGGRSLNCLVNGSLHISSSLVPMHQGSLAAGPCGCCSSCLNIGSKGKSSYCSEPTLLKKANKKQNFKSEVMVPVKASGSSHCRAGQTGVCLIM
B1: the “in vitro kinase assay (32P incorporation) with immunoprecipitated CaMK-X1” value is “In contrast, CaMK-X1 could not phosphorylate control peptide” in series [1]; “CaMK-X1 phosphorylated CREBtide and Syntide 2 in vitro” with Syntide 2; “CaMK-X1 phosphorylated CREBtide and Syntide 2 in vitro” with CREBtide. For the same protein, the “in vitro kinase assay (32P incorporation into peptides) with and without calmodulin” value in series [2] is “The degree of phosphorylation is augmented in the presence of calmodulin”.

B2: Histidine tagged CaMK-X1 expressed in Sf9 cells and purified with a Ni2+ affinity column (protein)
chain: MGRKEEDDCSSWKKQTTNIRKTFIFMEVLGSGAFSEVFLVKQRLTGKLFALKCIKKSPAFRDSSLENEIAVLKKIKHENIVTLEDIYESTTHYYLVMQLVSGGELFDRILERGVYTEKDASLVIQQVLSAVKYLHENGIVHRDLKPENLLYLTPEENSKIMITDFGLSKMEQNGIMSTACGTPGYVAPEVLAQKPYSKAVDCWSIGVITYILLCGYPPFYEETESKLFEKIKEGYYEFESPFWDDISESAKDFICHLLEKDPNERYTCEKALSHPWIDGNTALHRDIYPSVSLQIQKNFAKSKWRQAFNAAAVVHHMRKLHMNLHSPGVRPEVENRPPETQASETSRPSSPEITITEAPVLDHSVALPALTQLPCQHGRRPTAPGGRSLNCLVNGSLHISSSLVPMHQGSLAAGPCGCCSSCLNIGSKGKSSYCSEPTLLKKANKKQNFKSEVMVPVKASGSSHCRAGQTGVCLIM
B2: the “in vitro kinase assay (32P incorporation) with Ni2+ purified CaMK-X1” value in series [1] is “Syntide 2 and CREBtide had higher incorporation of ^32P than the control peptide”; with Syntide 2, “CREBtide and Syntide 2 are phosphorylated by the purified CaMK-X1”; with CREBtide it was “CREBtide and Syntide 2 are phosphorylated by the purified CaMK-X1”. In addition, in series [2], the “in vitro kinase assay (rate of peptide phosphorylation) with and without Ca2+ and calmodulin” value was “The rate of phosphorylation is increased in the presence of Ca^2+ and calmodulin”.
